Measured values published in patent US20100035361A1 (published 2010).
Non-standard residues stand in square brackets, D forms with d. No end group written: not given here. Aib = CC(C)(N)C(=O)O

molecular target: T1, extracellular domain of the Her2/neu antigen as a conjugate with the Fc region of human IgG (Fc-Her2), R&D … (human, UniProt P04626 23-652); assay: binding analysis (method not given; SPR per Example 2)
T1 construct: extracellular domain; Bought reagent; not shown: Fc region of human IgG

Row | Binder | binding result
1 | VENKCNK[Aib]MRN[Aib]YWE[Aib]ALLPNLNNQQKRAFIRSLYDDPC-NH2 (designed binder, cysteine pairing not given here, Cys at 5 and 39) [anti-Her2 two helix binder (SEQ ID NO. 24)] | no binding
2 | VENKCNK[Aib]MRN[Aib]YWE[Aib]ALLPNLNNQ[Aib]KRA[Aib]IRS[Aib]YDDPC-NH2 (designed binder, cysteine pairing not given here, Cys at 5 and 39) [anti-Her2 two helix binder (SEQ ID NO. 26)] | no binding
3 | VENKCNKEMRNAYWEIALLPNLNNQ[Aib]KRA[Aib]IRS[Aib]YDDPC-NH2 (designed binder, cysteine pairing not given here, Cys at 5 and 39) [anti-Her2 two helix binder (SEQ ID NO. 25)] | no binding

molecular target: T1, extracellular domain of the Her2/neu …; assay: SPR (Biacore) relative binding, about 5 ug/ml peptide
Description: Binding interactions between the binder and the Her2/neu antigen was measured in vitro using surface plasmon resonance (SPR) detection on a BIAcore™ 3000 instrument (Piscataway, N.J.). The extracellular domain of the Her2/neu antigen was obtained as a conjugate with the Fc region of human IgG (Fc-Her2) from R&D Systems and covalently attached to a CM-5 dextran-functionalized sensor chip (BIAcore™) pre-equilibrated with HBS-EP buffer (0.01M HEPES pH 7.4, 0.15M NaCl, 3 mM EDTA, 0.005% v/v surfactant P20) at 10 μL/min and subsequently activated with 1-ethyl-3-[3-dimethylaminopropyl]carbodiimide hydrochloride (EDC) and N-hydroxysuccinimide (NHS). The Fc-Her2 (5 μg/ml) in 10 mM sodium acetate (pH 5.5) was injected onto the activated sensor chip until the desired immobilization level was achieved (2 min). Residual activated groups on the sensor chip were blocked by injection of ethanolamine (1 M, pH 8.5). Any non-covalently bound conjugate was removed by repeated (n=5) washing with 2.5 M NaCl₂, 50 mM NaOH.
A second flow cell on the same sensor chip was treated identically, except with no Fc-Her2 immobilization, to serve as a control surface for refractive index changes and non-specific binding interactions with the sensor chip. Prior to the kinetic study, binding of the target analyte was tested on both surfaces and a surface stability experiment was performed to ensure adequate removal of the bound analyte and regeneration of the sensor chip following treatment with 2.5 M NaCl, 50 mM NaOH. SPR sensorgrams were analyzed using the BiaEval (BIAcore) software. The robustness of the kinetic model was determined by evaluation of the residuals and standard error for each of the calculated kinetic parameters, the “goodness of the fit” (χ2<10), and a direct comparison of the modeled sensorgrams to the experimental data.

Row | Binder | binding result
4 | VENKCNKEMRNAYWEIALLPNLNNQQKRAFIRSLYDDPX (designed binder, C^1 = hindered cysteine (penicillamine) at 39, disulfide linkage to natural Cys 5) [anti-Her2 two helix binder (SEQ ID NO. 23)] | binds
5 | VENKXNKEMRNAYWEIALLPNLNNQQKRAFIRSLYDDPC (designed binder, C^2 = extended cysteine (homocysteine) at 5, disulfide linkage to natural Cys 39) [anti-Her2 two helix binder (SEQ ID NO. 20)] | binds
6 | VENKCNKXMRNAYWXIALLPNLNNQQKRAFIRSLYDDPC (designed binder, E^1 = O-allyl glutamic acid at 8 and 15 joined by a covalent bridge (ring closing metathesis), Cys at 5 and 39) [anti-Her2 two helix binder (SEQ ID NO. 12), peptide with a covalent bridge between two E^1 residues] | binds
7 | VENKXNKEMRNAYWEIALLPNLNNQQKRAFIRSLYDDPC (designed binder, C^1 = hindered cysteine (penicillamine) at 5, disulfide linkage to natural Cys 39) [anti-Her2 two helix binder (SEQ ID NO. 19)] | binds
8 | VENKCNKEMRNAYWEIALLPNLNNQQKRXFIRSLYDDPC (designed binder, X = alpha amino isobutyric acid (Aib) at 29, Cys at 5 and 39) [anti-Her2 two helix binder (SEQ ID NO. 27), peptide with Ala29Aib] | binds
